Among the data in patent publication EP4631974A1 are EC50 and Kd values, retold here.

pKd: −log10 of the molar value. Where two headings read alike, the source gives them in different places.

Experiment [1] addresses RSV A2 pre-F protein (respiratory syncytial virus (RSV) A2) (UniProt P03420). Description: ELISA, plate-coated RSV A2 pre-F, anti-human IgG Fc-HRP detection. Background: An ELISA detects its analyte on a solid surface through an enzyme-linked reagent.
For experiment [2] the target is unchanged. The experiment is described as follows: BLI (Octet R8), RSV A2 pre-F captured on HIS1K sensor, antibody in solution. (Biolayer interferometry detects binding as a change in optical thickness at a sensor tip.)
The target is the same in experiment [3]. The experiment is described as above. This is another data set of the same source.
Experiment [4] has the same target. Description: ELISA, plate-coated RSV A2 pre-F, anti-human IgG Fc-HRP detection (2-fold dilutions from 1 ug/mL).

Take MEDI8897 (antibody): the EC50 in experiment [1] was 0.0313 mg/L; in experiment [4] it was 0.0146 mg/L. Further, the pKd in experiment [2] was 9.42; in experiment [3], 9.91.

Usually EC50 stands for the concentration needed to bring the measured effect to its halfway point. A high value points to a need for much substance. What is called pKd is the negative decadic logarithm of the Kd, by convention in mol/L. A high value points to a low Kd.
